Measurements reported in paper PMC8682754 (Nucleic Acids Research, 2021).
Like-named read-outs stand apart in the source and are kept apart here.

How the values were obtained:
[1] = target: SegA (Sulfolobus solfataricus); test: SEC
SegA [2] = target: T1, SegA (Saccharolobus solfataricus, UniProt Q981B3); test: X-ray crystal structure; format: binding; details: nucleotide pocket
T1 sequence (Q981B3 1-220): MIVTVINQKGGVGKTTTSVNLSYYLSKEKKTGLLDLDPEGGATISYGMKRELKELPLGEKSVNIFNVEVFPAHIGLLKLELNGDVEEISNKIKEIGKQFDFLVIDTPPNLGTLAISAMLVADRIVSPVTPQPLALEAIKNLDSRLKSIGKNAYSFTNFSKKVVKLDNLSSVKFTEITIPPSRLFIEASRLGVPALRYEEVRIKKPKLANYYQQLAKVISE

[3] = target: SegA (Sulfolobus solfataricus)
[4] = target: SegB (Sulfolobus solfataricus); test: SEC
SegA [5] = target: T2, SegA (Sulfolobus solfataricus, UniProt Q981B3 1-220); test: fluorescence polarization
T2 sequence: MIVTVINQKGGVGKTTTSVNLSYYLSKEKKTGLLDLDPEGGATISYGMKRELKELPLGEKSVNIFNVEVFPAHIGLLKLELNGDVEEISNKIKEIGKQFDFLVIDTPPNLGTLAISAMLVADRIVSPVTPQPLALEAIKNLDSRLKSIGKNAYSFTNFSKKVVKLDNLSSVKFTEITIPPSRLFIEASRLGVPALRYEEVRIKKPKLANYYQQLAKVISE

SegA [6] = target: T2, SegA; test: fluorescence polarization; remark: listed apart in the source
SegA [7] = target: T2, SegA; test: fluorescence polarization; remark: listed apart in the source
SegBΔ33 [8] = target: T3, SegBΔ33 (Sulfolobus solfataricus, UniProt Q981B2 34-109, del1-33); test: fluorescence polarization
T3 sequence: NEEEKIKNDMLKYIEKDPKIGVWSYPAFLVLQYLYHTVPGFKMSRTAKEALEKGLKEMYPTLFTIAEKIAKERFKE

SegB = target: T4, SegB (Sulfolobus solfataricus, UniProt Q981B2 1-109); test: fluorescence polarization
T4 sequence: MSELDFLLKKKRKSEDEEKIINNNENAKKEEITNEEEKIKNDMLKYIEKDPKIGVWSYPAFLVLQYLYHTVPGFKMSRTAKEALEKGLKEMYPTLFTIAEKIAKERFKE

SegA-K14Q = target: T5, SegA-K14Q (Sulfolobus solfataricus, UniProt Q981B3 1-220, K14Q); test: fluorescence polarization
T5 sequence: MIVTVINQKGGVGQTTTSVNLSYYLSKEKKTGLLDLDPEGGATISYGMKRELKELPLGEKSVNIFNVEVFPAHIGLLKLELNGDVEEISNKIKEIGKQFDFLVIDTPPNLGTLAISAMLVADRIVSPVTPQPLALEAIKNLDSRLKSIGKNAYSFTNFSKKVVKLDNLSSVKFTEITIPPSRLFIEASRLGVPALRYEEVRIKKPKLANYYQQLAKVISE

SegA-G10V = target: T6, SegA-G10V (Sulfolobus solfataricus, UniProt Q981B3 1-220, G10V); test: fluorescence polarization
T6 sequence: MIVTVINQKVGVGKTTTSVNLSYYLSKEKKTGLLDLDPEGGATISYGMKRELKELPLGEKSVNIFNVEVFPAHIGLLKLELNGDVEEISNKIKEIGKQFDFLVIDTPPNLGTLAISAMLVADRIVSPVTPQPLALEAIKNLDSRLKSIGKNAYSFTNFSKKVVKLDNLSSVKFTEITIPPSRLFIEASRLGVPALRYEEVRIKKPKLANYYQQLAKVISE

SegA-Q131A = target: T7, SegA-Q131A (Sulfolobus solfataricus, UniProt Q981B3 1-220, Q131A); test: fluorescence polarization
T7 sequence: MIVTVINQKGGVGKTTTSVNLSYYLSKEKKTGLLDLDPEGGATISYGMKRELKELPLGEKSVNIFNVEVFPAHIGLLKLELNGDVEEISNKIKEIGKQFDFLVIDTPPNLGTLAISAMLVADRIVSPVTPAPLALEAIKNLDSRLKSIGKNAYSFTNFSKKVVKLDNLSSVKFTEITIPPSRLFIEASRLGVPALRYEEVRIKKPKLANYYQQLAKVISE

SegA-Q131A/F158A = target: T8, SegA-Q131A/F158A (Sulfolobus solfataricus, UniProt Q981B3 1-220, Q131A;F158A); test: fluorescence polarization
T8 sequence: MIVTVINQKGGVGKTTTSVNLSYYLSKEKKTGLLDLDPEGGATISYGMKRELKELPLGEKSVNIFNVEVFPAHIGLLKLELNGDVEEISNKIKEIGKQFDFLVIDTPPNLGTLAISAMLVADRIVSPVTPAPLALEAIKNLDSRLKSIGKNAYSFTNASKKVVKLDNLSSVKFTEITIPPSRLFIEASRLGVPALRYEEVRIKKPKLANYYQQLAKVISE

SegBΔ33 [9] = target: T3, SegBΔ33; test: crystal structure

Q: Which stoichiometry N [1] does the source give for SegA (enzyme) here?
A: 2

Q: Which X-ray crystal structure (SegA [2]) does the source give for Nc1ncnc2c1ncn2[C@@H]1O[C@H](COP(=O)(O)OP(=O)(O)NP(=O)(O)O)[C@@H](O)[C@H]1O [AMPPNP, adenosine 5′-(β,γ-imido)triphosphate] here?
A: We observed AMPPNP inside the nucleotide binding pocket

Q: Which results are given for SegB (natural protein)?
A: increase of SegA ATPase activity upon addition of both SegB and S1 DNA [3]: 1000 fold; stoichiometry N [4]: 2

B1: 24-bp nsDNA (dsDNA)
DNA 1: AGGGTGTTCCACGTGAAACAGGGA
DNA 2: TCCCTGTTTCACGTGGAACACCCT
Q: With B1 as the molecule, how does the Kd (SegA [5]) read?
A: 450 nM

Q: And the Kd (SegA [6])?
A: 240 nM

Q: What about the Kd (SegA [7]) of the same molecule?
A: 710 nM

B2: 23-bp S1 DNA (dsDNA)
DNA 1: TACGTAGAAGAGTCTAGACTGAC
DNA 2: TCAGTCTAGACTCTTCTACGTAG
Q: What does the source list for B2?
A: Kd (SegBΔ33 [8]): 280 nM; Kd (SegB): 180 nM; binding result (SegA-K14Q): binds; binding result (SegA-G10V): binds; binding result (SegA-Q131A): no binding; binding result (SegA-Q131A/F158A): no binding

B3: 21-bp S1 DNA (dsDNA)
DNA 1: ACGTAGAAGAGTCTAGACTGA
DNA 2: CAGTCTAGACTCTTCTACGTA
Q: Does B3 bind (SegBΔ33 [9])?
A: binds
